Results on 19 sequences are retold here after the DeepSol protein solubility set.

The series can be described thus: soluble on expression in E. coli; label from the status in PepcDB or PDB records.
In the case of “VVTLGYWDIRGLAHAIRLLLEYTETPYQERRYKAGPAPDFDPSDWTNEKEKLGLDFPNLPYLIDGDVKLTQSNAILRYIARKHNMCGETEVEKQRVDVLENHLMDLRMAFARLCYSPDFEKLKPAYLELLPGKLRQLSRFLGSRSWFVGDKLTFVDFLAYDVLDQQRMFVPDCPELQGNLSQFLQRFEALEKISAYMRSGRFMKAPIFWYTALWNNKKE”, the “soluble on expression in E. coli” value is recorded as “soluble”. With “MSTVGLFHFPTPLTRICPAPWGLRLWEKLTLLSPGIAVTPVQMAGKKDYPALLSLDENELEEQFVKGHGPGGQATNKTSNCVVLKHIPSGIVVKCHQTRSVDQNRKLARKILQEKVDVFYNGENSPVHKEKREAAKKKQERKKRAKETLEKKKLLKELWESSKKVH”, the “soluble on expression in E. coli” value is “soluble”. As for “MGGSHHHHHHGMASMTGGQQMGRDLYDDDDKDRWGSELEISMEQVSASIGNFTVDLFNKLNETNRDKNIFFSPWSISSALALTYLAAKGSTAREMAEVLHFEQAENIHSGFKELLTAFNKPRNNYSLRSANRIYVEKTYALLPTYLQLSKKYYKAEPQKVNFKTAPEQSRKEINTWVEKQTESKIKNLLSSDDVKATTRLILVNAIYFKAEWEVKFQAEKTSIQPFRLSKNKSKPVKMMYMRDTFPVLIMEKMNFKMIELPYVKRELSMFILLPDDIKDGTTGLEQLERELTYERLSEWADSKMMTETLVDLHLPKFSLEDRIDLRDTLRNMGMTTAFTTNADFRGMTDKKDLAISKVIHQSFVAVDEKGTEAAAATAVIISFTTSVINHVLKFKVDHPFHFFIRHNKSKTILFFGRFCCPVE”, the entry is “soluble”.

In the case of “MGDTDRKLFVLDTNILLHEPFAIFSFQEHDVVIPMTVLEELDRIKDSKRDVARDARVAIRALEDLFKDATPDEISEGIPVSKEKPDQGSISILADFELQETVKAFADKAGDNRILNAVLYLQNKRAPREVVLITKDINMRLRAKGAGVRFVEDYRTDQLIDDIQYLTKGFQQREGDFWSGIDEVESYALGGKTYHKLSREPFDPTFINQYVIDEDSDFAGRVETINEDKLTLLDLSRERMMHRRAWDITPKNIYQAMALDALLDPDIDLVILTGAAGSGKTLLAMAAALEQTIEKGMFDKIIVTRNTPDIGESIGFLPGSEEEKMMPWLAAVTDTLEALHKHDHCTEGSLKYICDKANIQFKSINFMRGRSIQNAFVLLDECQNLTASQIKTIITRCGEGTKIVCSGNLAQIDSHYLTPVTSGLTYMVERFKNFEGSANIHLNGVVRSRLAEFAEENL”, the “soluble on expression in E. coli” value is “soluble”. As for “MPANGGRGVGEGESPVSFFERLKAGLQKTKEALIGQVNTVMSVFRKIDDDLFDELEEALIRGDVGVATSAKLVEELRREARQKGLKNGDELLPLLKELVAERLGSGAAPLRLNEGGLTVILVVGVNGVGKTTTIGKLARHLREDRGLKVVLAAADTFRAAAMDQLKVWGERAGAEVVTGPEGADPAAVAFDGVKAARASGADVLIVDTAGRLHNKAHLMAELGKIARVLGREVPGAPHETLLVLDATTGQNAIQQTRLFKETVPVTGIALTKLDGTAKGGVVVAIADTEQVPVKFIGVGERLDDLQPFDPRQFVEALFSE”, the entry is “soluble”; as for “GSHMASMTGGQQMGRGSNNGDICIKDSINTLWTGINPPPNCQIVENTNTNDGKLTLVLVKNGGLVNGYVSLVGVSDTVNQMFTQKTANIQLRLYFDSSGNLLTEESDLKIPLKNKSSTATSETVASSKAFMPSTTAYPFNTTTRDSENYIHGICYYMTSYDRSLFPLNISIMLNSRMISSNVAYAIQFEWNLNASESPESNIATLTTSPFFFSYITEDDN”, “soluble”. Turning to “MGHHHHHHSHMIDILDVKSRATIQDLGRFGLRRFGISHCGAMDKLALRAGNILLGNAENVPAIEVPLGGITLQFQQDMNFCVTGAFYEMMLDDKPVFAYWRYQVRAGQILKMARAKIGMYGYLCVQGGFVLPQALNSCSTDLRAQIGGIEGRCLQAGDQLQTANDHILRSEIGIAPIPLRDVIRALPSSEYQAFKRKSQYYWWRNEWTLQSNSDRMGYRFQGQTLELKQPLEMLSHAIQFGSVQVPPSGQPIILMADAQTTGGYPKIANVIDADLGALAQVRLGSTIKFEAVSLQEAAKLRRKNEIYLDQIRRIVDEKN”, the “soluble on expression in E. coli” value is “not soluble”. As for “MSLTNQAYPMALVSQDSLDSYIRSVNGYPMLSADEERELAERLHYKGDIDAAKGLILSHLRFVVHVARGYSGYGLPMADLVQEGNIGLMKAVKRFNPEMGVRLVSFAVHWIKAEIHEYVLRNWRIVKIATTKAQRKLFFNLRKSKKRLGWFNNGEVETVARELGVEPAEVREMESRLAAQDAAFEMSAEDDENGMAYTAPVLYLEDKHSDLADNLEAENWEAHTTQRLSMALASLDERSQHIVRARWLDDDNKTTLQDLAEMYGVSAERIRQLEKNAMRKLKEAVGEEGHHHHHH”, the entry is “soluble”; as for “MGSDKIHHHHHHMFVNRKEELEFLERKWREEGAQLIIIYGRRRIGKTMLLKEFLKGKRGIYFLATADSMAENIRGLAEKFTKLTRREYFMEVRDFRRLFRYLAEEMGKERVAVVLDEFQYLISLDPGILSVLQKIWDEYLKDTGIFLILCGSSIGMMERTLEYKSPLYGRRTGAWKVKPFDIRGIAEMFPERSMEELVKIYAVFGGVPFYLDLIRNLSVENAIKERILKKGEILYEEPEFLLREELREPRVYKLILKGLALGYESLGELINFTGLDRGNLSKYLDTLERLELVGYELPYGKRKRGQYYIRDNFFNFWFRFVYPNLADLELGLVNEVWERISGEINAYYGKMFERLVREMLRLRILDFGQKGVSRWWHRGEEIDAIAELKDKLLFVEVKWKDLNRREARKILKDLKRKSERFEGEKEFLLIAKRIEDKEEGMLDLEDLEKVIRNL”, “not soluble”; as for “MTINFRRNALQLSVAALFSSAFMANAADVPQVKVTVTDKQCEPMTITVNAGKTQFIIQNHSQKALEWEILKGVMVVEERENIAPGFSQKMTANLQPGEYDMTCGLLTNPKGKLIVKGEATADAAQSDALLSLGGAITAYKAYVMAETTQLVTDTKAFTDAIKAGDIEKAKALYAPTRQHYERIEPIAELFSDLDGSIDAREDDYEQKAADPKFTGFHRLEKALFGDNTTKGMDQYAEQLYTDVVDLQKRISELAFPPSKVVGGAAGLIEEVAASKISGEEDRYSHTDLWDFQANVEGSQKIVDLLRPQLQKANPELLAKVDANFKKVDTILAKYRTKDGFETYDKLTDADRNALKGPITALAEDLAQLRGVLGLD”, “soluble”. With “GPVWRKHYITYRINNYTPDMNREDVDYAIRKAFQVWSNVTPLKFSKINTGMADILVVFARGAHGDDHAFDGKGGILAHAFGPGSGIGGDAHFDEDEFWTTHSGGTNLFLTAVHEIGHSLGLGHSSDPKAVMFPTYKYVDINTFRLSADDIRGIQSLYGDPKENQRLPNPDNSEPALCDPNLSFDAVTTVGNKIFFFKDRFFWLKVSERPKTSVNLISSLWPTLPSGIEAAYEIEARNQVFLFKDDKYWLISNLRPEPNYPKSIHSFGFPNFVKKIDAAVFNPRFYRTYFFVDNQYWRYDERRQMMDPGYPKLITKNFQGIGPKIDAVFYSKNKYYYFFQGSNQFEYDFLLQRITKTLKSNSWFGC”, the “soluble on expression in E. coli” value was “soluble”.

On to “MSLENWRFIEANSDYMVSDHGRILSFKGKSKLIISSSITAKGYEYVAIRQKGIYVGYSVHRLVATAFIPNPKRLPQVNHLDGNKLNNHVANLEWCDAYDNVMHAIRTGLRPSSPALSPVPCATTDEAGNILQAYPSMNALVKGEQMNPKQRNWLVLHLLHPERLKQSAMKKKSRAERSGSEECFLIAPEIPVLTVKADSIGEFEAGNPLGIGKSSNSVGEFEAGNPLGIGKSSNSVEEFEAGNPLGIGKSSNSVGEFKAGNVCVQPVSFSFVSSPFPLISLFAPIHHSVTQHYYRRLSPEESAIFGFNTYILPRERGQRKEFLQEGHHHHHH”, for which the “soluble on expression in E. coli” value is recorded as “not soluble”. As for “MGSDKIHHHHHHMKTFHLTTQSRDEMVDITSQIETWIRETGVTNGVAIVSSLHTTAGITVNENADPDVKRDMIMRLDEVYPWHHENDRHMEGNTAAHLKTSTVGHAQTLIISEGRLVLGTWQGVYFCEFDGPRTNRKFVVKLLTD”, the “soluble on expression in E. coli” value was “soluble”. As for “GSHMKNSVSVDLPGEMKVLVSKEKNKDGKYDLIATVDKLELKGTSDKNNGSGVLEGVKADKSKVKLTISDDLGQTTLEVFKEDGKTLVSKKVTSKDKSSTEEKFNEKGELSEKKITRADKSSTEEKFNEKGELSEKKITRADKSSTEEKFNEKGELSEKKITRADKSSTEEKFNEKGELSEKKITRADKSSTEEKFNEKGELSEKKITRADKSSTEEKFNEKGEVSEKIITRADGTRLEYTGIKSDGSGKAKEVLKGYVLEGTLTAEKTTLVVKEGTVTLSKNISKSGEVSVELNDTDSSAATKKTAAWNSGTSTLTITVNSKKTKDLVFTKENTITVQQYDSNGTKLEGSAVEITKLDEIKNALK”, the entry is “soluble”.

For the sequence “GPGSMLDEVLHSRVVQALLGALVMRELYSDAAVLLASVPPVLDTGGDTSSKDFGGIPSPLLVATRQDTLASLASFRQCVAARRWVEAVQIIDGSATAQSWAQATPLCAMVAFVRLEMDDPKAARALLLPYLASLPEPPSWEALSTAPVEHAQLWDNFTSHYVFSTTLLAKASFMSGSAYLNISAALLQRALRLSPSYAPARLFAEFVLSFEAQQQHVDAAVSASDYPKVLSVTAEMLRMPEVTRLVRAELYLVRTQAQWMRGQPLEVVHEASRCEQCDPQCALAFRLRADAFAMMSRETEAAADLAVAKHLNARVGALFDELQVQRSRRNAAQVEAKAKRNSVPAFKSFPSASAPLRSSATESFCGSTRRSGAQARMSTDTELSPSLRTHYDVLGVSSNASEAEIRRRYRRLTLQLHPDRLVGAAESDRRAALEAFQLLGNAYSVLSDTQLRATYDAGLPGLH”, the “soluble on expression in E. coli” value was “not soluble”. As for “NALHVINMVGTRHATPYGQDICTRFLADLSVLCPNALIVSGLAYGIDIHAHRAALQNHFKTIGVLAHGLDRIYPAEHRKTAVSMLEQGGLLTEFTSGTNPDRQNFVKRNRIVAGMSDATVVIESAAKGGALITAELAESYHRDCFAFPGRCNDEYSIGCNNLIRKNQAVLITSAEDLVKAMGWESSPKTEKT”, the entry is “not soluble”; as for “MGSDKIHHHHHHMELSSPSKKTTTSPINIPGGNRDNLIIGPHSHSFKTDPFSSNNSSLLSKISTNPSLESPFSSKSLLDCSPVQAVKKSLESEAKTHSLDEETNEQTDVKILNIADFPTDELILMISALLNRIITANDETTDVSQQVSDETEDELLTPILAFYGKNVPEIAVVQYLERIQKYCPTTNDIFLSLLVYFDRISKNYGHSSERNGCAKQLFVMDSGNIHRLLITGVTICTKFLSDFFYSNSRYAKVGGISLQELNHLELQFLILCDFKLLVSVEEMQKYANLLYKFWNDQ”, “not soluble”. In the case of “GEGITLNQVAVGCECQDCLWAPTGGCCPGASLHKFAYNDQGQVRLRAGLPIYECNSRCRCGYDCPNRVVQKGIRYDLCIFRTDDGRGWGVRTLEKIRKNSFVMEYVGEIITSEEAERRGQIYDRQGATYLFDLDYVEDVYTVDAAYYGNISHFVNHSCDPNLQVYNVFIDNLDERLPRIAFFATRTIRAGEELTFDYNMQVDPVDMESTRMDSNFGLAGLPGSPKKRVRIECKCGTESCRKYLF”, the “soluble on expression in E. coli” value is listed as “not soluble”. As for “PISSEQKQLISQLTDLGYSFDGLQTGYPGGEPDWHYVKELSGIEEKDLIKSFSKKGKPLVKKAKTFGIKLKKLKRDELSIFKEITSATSDRREYSDKSLDYYQDFYDAFGDNADFMVATLNFQDYFDHLESNQAKLRARIVKLQADLETNPTSEKKQNQLRELSSQLETFDVRKGEATAFIDKYGQEDIVLAGSLFVYTPQEAVYLFSGSYPEFNKFYAPALLQEYVMTQAIKRGIGFYNFLGIMGIFDGSDGVLRFKQNFNGYIVRKMGTFRYYPQPLKYKAIQGVKKLLGRN”, the entry is “not soluble”.
